Measured values taken from PMC12368178.
Values joined by “and” are separate entries in the source; they are usually repeats but may differ in a detail not shown here. Equal entries are not always repeated.

Molecular target: 16055 DG4 NFL trimer (HIV-1 (Indian subtype C 16055 strain))
Assay: SEC + native gel or EMSA

In the case of 16055 DG4 NFL trimer, the stoichiometry N was 3 and 6.
